In general, Kd refers to the free concentration of one partner at which half of the binding sites on the other are occupied at equilibrium, for simple one-to-one binding. A low value points to tighter binding.

Among the data in PMC2940250 are Kd values, retold here.

What all share (assay): other fluorescence titration
Assay [1] concerns the target C1 chimeric virus (HRV14:HIV-1 gp41 ELDKWAS chimera) (human rhinovirus 14 | HIV-1 HxB2).
In assay [2] the target is B1 chimeric virus (HRV14:HIV-1 gp41 ELDKWAS chimera) (human rhinovirus 14 | HIV-1 HxB2).
The target of assay [3] is 14-C40-1 chimeric virus (HRV14:HIV-1 gp41 ALDKWAS chimera from a previous library) (human rhinovirus 14 | HIV-1 HxB2).

For “broadly neutralizing human mAb 2F5 (antibody)”, the figures for the Kd in assay [1], in assay [2] and in assay [3] were 23.8 nM, 2 nM and 769 nM, respectively.
